The test system of the data set is Escherichia coli TOP10. Kind of data set: shrunken log2 fold change of peptide-encoding DNA abundance (4.5 h post-induction vs induction); higher = less antimicrobial activity (less host growth inhibition). Conditions: time post-induction: 4.5 h; library: site-saturation at positions 5, 18, 19, 20.
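Also: peptides expressed intracellularly from a pBAD plasmid library in pooled LB shake-flask culture, induced with 0.3% L-arabinose, DNA abundance read by NGS, three biological replicates, DESeq2 with apeglm shrinkage.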

With RRIRTRPPRLPRPRPRPTPRPRP, the “shrunken log2 fold change” value was found to be 0.674.

As to RRIRGRPPRLPRPRPRPTVRPRP, the “shrunken log2 fold change” value is 0.452.

Regarding RRIRRRPPRLPRPRPRPQFLPRP, the “shrunken log2 fold change” value is -0.0792.

In the case of RRIRNRPPRLPRPRPRPSWMPRP, the “shrunken log2 fold change” value was -0.487.

For RRIRFRPPRLPRPRPRPVIVPRP, the “shrunken log2 fold change” value was -0.997.

In the case of RRIRSRPPRLPRPRPRPAWCPRP, the “shrunken log2 fold change” value was determined as 0.545.

As for RRIRPRPPRLPRPRPRPWCRPRP, the “shrunken log2 fold change” value worked out at 0.0933.

As for RRIRPRPPRLPRPRPRPMFQPRP, the “shrunken log2 fold change” value is -0.241.

For the sequence RRIRPRPPRLPRPRPRPKSPPRP, the “shrunken log2 fold change” value was -0.12.

As for RRIRQRPPRLPRPRPRPCSNPRP, the “shrunken log2 fold change” value was -0.174.

Consider RRIRNRPPRLPRPRPRPKNRPRP, for which the “shrunken log2 fold change” value is 0.0314.

RRIRKRPPRLPRPRPRPYWRPRP: the “shrunken log2 fold change” value is -0.426.

Regarding RRIRQRPPRLPRPRPRPMLPPRP, the “shrunken log2 fold change” value is -0.384.

Take RRIRSRPPRLPRPRPRPAQDPRP: the “shrunken log2 fold change” value is 0.235.

With RRIRMRPPRLPRPRPRPCDYPRP, the “shrunken log2 fold change” value is -0.163.

Consider RRIRYRPPRLPRPRPRPHCTPRP, for which the “shrunken log2 fold change” value was -0.372.

Consider RRIRPRPPRLPRPRPRPTQEPRP, for which the “shrunken log2 fold change” value is 0.617.

Take RRIRKRPPRLPRPRPRPLFGPRP: the “shrunken log2 fold change” value stood at 0.439.

In the case of RRIRKRPPRLPRPRPRPDVLPRP, the “shrunken log2 fold change” value was found to be 0.0156.

As to RRIRFRPPRLPRPRPRPNDMPRP, the “shrunken log2 fold change” value is -0.388.

For the sequence RRIRMRPPRLPRPRPRPAAAPRP, the “shrunken log2 fold change” value came out at 2.93.

As for RRIRFRPPRLPRPRPRPAIVPRP, the “shrunken log2 fold change” value is -0.0488.

In the case of RRIRPRPPRLPRPRPRPINYPRP, the “shrunken log2 fold change” value was -0.402.

For the sequence RRIRYRPPRLPRPRPRPDLCPRP, the “shrunken log2 fold change” value was 0.0404.

For RRIRYRPPRLPRPRPRPWGEPRP, the “shrunken log2 fold change” value is -0.102.

For the sequence RRIRTRPPRLPRPRPRPSRNPRP, the “shrunken log2 fold change” value was -0.0832.

As to RRIRCRPPRLPRPRPRPRVQPRP, the “shrunken log2 fold change” value is 0.241.

Regarding RRIRKRPPRLPRPRPRPPATPRP, the “shrunken log2 fold change” value was found to be 0.773.

As to RRIRNRPPRLPRPRPRPFPYPRP, the “shrunken log2 fold change” value is -0.4.

For RRIRTRPPRLPRPRPRPDVGPRP, the “shrunken log2 fold change” value is -0.0549.

Regarding RRIRYRPPRLPRPRPRPVCWPRP, the “shrunken log2 fold change” value came out at 0.196.

As for RRIRTRPPRLPRPRPRPPDWPRP, the “shrunken log2 fold change” value was 0.705.

With RRIRTRPPRLPRPRPRPWVIPRP, the “shrunken log2 fold change” value came to 0.0147.

Consider RRIRARPPRLPRPRPRPHQFPRP, for which the “shrunken log2 fold change” value was -0.024.

Turning to RRIRHRPPRLPRPRPRPYLSPRP, the “shrunken log2 fold change” value is -0.221.

On to RRIRTRPPRLPRPRPRPYNDPRP, for which the “shrunken log2 fold change” value is -0.00735.

For RRIRSRPPRLPRPRPRPYSAPRP, the “shrunken log2 fold change” value was -0.0105.

Consider RRIRFRPPRLPRPRPRPEKNPRP, for which the “shrunken log2 fold change” value is -0.0204.

Consider RRIRERPPRLPRPRPRPKNGPRP, for which the “shrunken log2 fold change” value is -0.0133.

As to RRIRGRPPRLPRPRPRPGTFPRP, the “shrunken log2 fold change” value is 0.222.

On to RRIRHRPPRLPRPRPRPDDYPRP, for which the “shrunken log2 fold change” value was -0.00759.

As for RRIRPRPPRLPRPRPRPHDDPRP, the “shrunken log2 fold change” value was -0.421.

In the case of RRIRGRPPRLPRPRPRPRNDPRP, the “shrunken log2 fold change” value amounted to 0.113.

With RRIRKRPPRLPRPRPRPYEHPRP, the “shrunken log2 fold change” value is 0.049.

For the sequence RRIRNRPPRLPRPRPRPPQAPRP, the “shrunken log2 fold change” value is 0.0708.

On to RRIRHRPPRLPRPRPRPNDMPRP, for which the “shrunken log2 fold change” value was -0.26.

For RRIRARPPRLPRPRPRPPQNPRP, the “shrunken log2 fold change” value worked out at 1.05.

Regarding RRIRQRPPRLPRPRPRPLSCPRP, the “shrunken log2 fold change” value was -0.242.

Turning to RRIRKRPPRLPRPRPRPEEAPRP, the “shrunken log2 fold change” value was 3.85.

For RRIRLRPPRLPRPRPRPKHNPRP, the “shrunken log2 fold change” value was -0.384.

As to RRIRLRPPRLPRPRPRPCPKPRP, the “shrunken log2 fold change” value is 0.136.

Regarding RRIRCRPPRLPRPRPRPEQAPRP, the “shrunken log2 fold change” value came to 0.219.

For RRIRHRPPRLPRPRPRPMPKPRP, the “shrunken log2 fold change” value came out at 0.193.

Regarding RRIRVRPPRLPRPRPRPMGIPRP, the “shrunken log2 fold change” value was found to be 0.134.

In the case of RRIRTRPPRLPRPRPRPWLFPRP, the “shrunken log2 fold change” value was found to be 0.212.

With RRIRCRPPRLPRPRPRPIRMPRP, the “shrunken log2 fold change” value is -0.339.

As for RRIRMRPPRLPRPRPRPNVHPRP, the “shrunken log2 fold change” value was -0.333.

Take RRIRARPPRLPRPRPRPHFAPRP: the “shrunken log2 fold change” value was found to be 0.733.

Take RRIRVRPPRLPRPRPRPAAVPRP: the “shrunken log2 fold change” value came out at 0.114.

In the case of RRIRTRPPRLPRPRPRPHDLPRP, the “shrunken log2 fold change” value is -0.0128.

Turning to RRIRVRPPRLPRPRPRPCDMPRP, the “shrunken log2 fold change” value is -0.448.

For the sequence RRIRPRPPRLPRPRPRPSLYPRP, the “shrunken log2 fold change” value is -0.326.

RRIRQRPPRLPRPRPRPMCIPRP: the “shrunken log2 fold change” value is 0.0119.

RRIRFRPPRLPRPRPRPPHEPRP: the “shrunken log2 fold change” value was -0.064.

On to RRIRTRPPRLPRPRPRPTHNPRP, for which the “shrunken log2 fold change” value is 0.0318.

Consider RRIRHRPPRLPRPRPRPRFFPRP, for which the “shrunken log2 fold change” value came to 0.152.

Take RRIRHRPPRLPRPRPRPDFAPRP: the “shrunken log2 fold change” value is -1.07.

Consider RRIRQRPPRLPRPRPRPHLFPRP, for which the “shrunken log2 fold change” value turned out to be 0.0199.

With RRIRIRPPRLPRPRPRPQNLPRP, the “shrunken log2 fold change” value is -0.261.

With RRIRWRPPRLPRPRPRPACVPRP, the “shrunken log2 fold change” value was 0.347.

As for RRIRQRPPRLPRPRPRPRVSPRP, the “shrunken log2 fold change” value was -0.0909.

Consider RRIRKRPPRLPRPRPRPMGQPRP, for which the “shrunken log2 fold change” value stood at 0.0265.

As to RRIRFRPPRLPRPRPRPQYSPRP, the “shrunken log2 fold change” value was -0.581.

On to RRIRNRPPRLPRPRPRPNNDPRP, for which the “shrunken log2 fold change” value is -0.934.

On to RRIRARPPRLPRPRPRPTLEPRP, for which the “shrunken log2 fold change” value was found to be 0.388.

Consider RRIRVRPPRLPRPRPRPVAKPRP, for which the “shrunken log2 fold change” value is 0.233.

As for RRIRARPPRLPRPRPRPIFNPRP, the “shrunken log2 fold change” value was 0.0119.

With RRIRPRPPRLPRPRPRPRCVPRP, the “shrunken log2 fold change” value worked out at 0.0965.

On to RRIRCRPPRLPRPRPRPECVPRP, for which the “shrunken log2 fold change” value stood at 0.588.

As to RRIRHRPPRLPRPRPRPATFPRP, the “shrunken log2 fold change” value is -0.662.

RRIRKRPPRLPRPRPRPGWGPRP: the “shrunken log2 fold change” value amounted to 0.432.

Regarding RRIRTRPPRLPRPRPRPCNMPRP, the “shrunken log2 fold change” value was -0.154.

In the case of RRIRLRPPRLPRPRPRPSRTPRP, the “shrunken log2 fold change” value was -0.204.

RRIRCRPPRLPRPRPRPLQKPRP: the “shrunken log2 fold change” value is -0.0859.

With RRIRERPPRLPRPRPRPARDPRP, the “shrunken log2 fold change” value was found to be 0.19.

In the case of RRIRTRPPRLPRPRPRPMHVPRP, the “shrunken log2 fold change” value is -0.0197.

Turning to RRIRVRPPRLPRPRPRPSEEPRP, the “shrunken log2 fold change” value amounted to 0.00143.

With RRIRTRPPRLPRPRPRPFMFPRP, the “shrunken log2 fold change” value is -0.586.

As to RRIRARPPRLPRPRPRPQNRPRP, the “shrunken log2 fold change” value is 0.495.

For the sequence RRIRQRPPRLPRPRPRPVNYPRP, the “shrunken log2 fold change” value was -0.00127.

For RRIRMRPPRLPRPRPRPCGPPRP, the “shrunken log2 fold change” value worked out at 0.481.

These data come from the supplement of paper PMC9112550, “Optimization of the antimicrobial peptide Bac7 by deep mutational scanning” (BMC Biology, 2022).
